Sequences and labels used below:
B1: GFAP-12 (antibody, V domains shown)
VH: QVQLQQSGAELMKPGASVKISCKATGYTFSNYWIEWVKQRPGHGLEWIGEILPGSGSTNYNEKFKGKATFTADTSSNTAYMQLSSLTSEDSAVYYCAIYYGNYAGAMDYWGQGTSVTVSS
VL: DIQMTQSPASLSASVGETVTITCRASENIYSYLAWYQQKQGKSPQLLVYNAKTLAEGVPSRFSGSGSGTQFSLKINSLQPEDFGSYYCQLHYGTPYTFGSGTKLEIK
notes: also called mouse anti-GFAP antibody GFAP-12
B2: GFAP-3 (antibody, V domains shown)
VH: EVKLEESGGGLVQPGGSMKLSCVASGFTFTNYWMSWVRQSPEKGLEWVAQIRLKSDNYATHYAESVKGRFTISRDDSKSSVYLQMNNLRAEDTGIYYCTGGEFLSWFAYWGQGTLVTVSA
VL: DIVMSQSPSSLAVSAGEKVTMSCKSSQSLFNSRTRKNYLAWYQQKPGQSPKLLIYWASTRESGVPDRFTGSGSGTDFTLTISSVQAEDLAVYYCKQSYYLYTFGSGTKLEIK
notes: also called mouse anti-GFAP antibody GFAP-3
B3: GFAP-19 (antibody, V domains shown)
VH: EVQLVESGGGLVKPGGSPKLSCAASGFAFSSYDMSWVRQTPEKRLEWVAYISSGGGSTYYPDTMKGRFTISRDNAKNTLYLQMSSLKSEDTAMYYCARHYGTYLYYLDYWGQGTTLTVSS
VL: DIVLTQSPATLSVTPGDRVSLSCRASQNISDFLHWYQQKSHESPRLLIKYASQSISGIPSRFSGSGSGSDFTLSINSVEPEDVGVYYCQNGHSFPPTFGGGTKLEIK
notes: also called mouse anti-GFAP antibody GFAP-19
B4: GFAP-6 (antibody, V domains shown)
VH: EVQLQQSGAEFVKPGASVKLSCTASGFNIKDTDMHWVRQRPEQGLESIGLIDPAIGNTKYDPKFQGKATITADTSSNAAYLQLSSLTSEDTAVYYCARSDRYLAWFAYWGQGTLVTVSA
VL: DIVMTQSPATLSVTPGDRVSLSCRASQSISDFLHWYQQKSHGSPRLLIKYSSQSISGIPSRFSGSGSGSDFTLSINSVEPEDVGVYYCQNGHTFPYTFGGGTKLEIK
notes: also called mouse anti-GFAP antibody GFAP-6; HRP-labeled anti-GFAP antibody
B5: GFAP-13 (antibody, V domains shown)
VH: EVLLQQSGPELVKPGASVKMSCKTSGYTFANYIMHWVKQTPGQGLEWIGFINPYNDYTEYNEKFKGKATLTSDKSSSTAYMEFSGLTSEDSAVYYCSTATFAYWGQGTLVTVSA
VL: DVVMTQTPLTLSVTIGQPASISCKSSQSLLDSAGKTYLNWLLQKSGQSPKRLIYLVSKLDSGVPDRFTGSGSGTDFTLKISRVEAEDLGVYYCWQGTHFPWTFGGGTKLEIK
notes: also called mouse anti-GFAP antibody GFAP-13
B6: GFAP-1 (antibody, V domains shown)
VH: EVHLQQSGTVLARPGASVKMSCKASGYSFTSYWMHWVKQRPGQGLEWIGAFYPENSDTNYNQKFKGKARLTAVTSANTAYMELNSLTNEDSAVYYCTRPLLFSAYFDFWGQGTTLTVSS
VL: DVLMTQTPLSLPVSLGDQASISCRSSQSIVHSYGNTYLEWYLQKPGLSPKLLIYKVSNRFSGVPDRFSGSGSGTDFTLTISRVEAEDLGVYYCFQGSHVPYTFGGGTKLEIK
notes: also called mouse anti-GFAP antibody GFAP-1
B7: GFAP-15 (antibody, V domains shown)
VH: DVQLVESGGGLLEPGGSRKLSCAASGFTFSSFGMHWVRQAPEKGLEWVAYISSGSRTIFYADTVKGRFTISRDNPKNTLFLQMTSLRSGDTAMYYCVRGGYGSSFDYWGQGTTLTVSS
VL: DVVMTQTPLSLPVSLGDQASISCRSSQSLVYSNGNIYLHWYLQKPGQSPKLLIYKVSNRFSGVPDRFSGSGSGTDFTLKISRVEAEDLGVYFCSQSTHVPYTFGGGTKLEIK
notes: also called mouse anti-GFAP antibody GFAP-15
B8: GFAP-2 (antibody, V domains shown)
VH: DVQLVESGGGLVQPGGSRKLSCAASGFTFSSFGMHWVRQAPEKGLEWVAYISSGSSIIYYADTVKGRFTISRDNPKNTLFLQMTSLRSEDTAMYYCTGSDWGSFAYWGQGTLVTVSA
VL: DVVMTQTPLSLPVSLGDQASISCRSSQSLVYSNGNTYLHWYLQKPGQSPKLLIYKVSNRFFGVPDRFSGSGSGTDFTLKISRVEAEDLGVYFCSQSTHVPYTFGGGTKLEIK
notes: also called mouse anti-GFAP antibody GFAP-2
B9: GFAP-5 (antibody, V domains shown)
VH: EVQLVESGGGLVKPGGSLKLSCAASGFTFSAYGMHWVRQAPEKGLEWIAYISSGSSTIYYADTVKGRFTISRDNAKNTLFLQMTSLRSEDTAMYYCASSYALDYWGQGTSVTVSS
VL: DVVMTQTPLSLPVSLGDQASISCRSSQSLVYSNGNTYLHWYLQKPGQSPKLLIYKVSNRFSGVPDRFSGSGSGTDFTLKISRVEAEDLGVYFCSQSTHVPYTFGSGTKLEIK
notes: also called mouse anti-GFAP antibody GFAP-5
B10: GFAP-16 (antibody, V domains shown)
VH: QVQLQQSDAELVKPGASVKISCKASGYTFTDHTIHWVKQRPEQGLEWIGYIYPGDGSTKYNEKFKGKATLTADKSSSTVYMQLNSLTSEDSAVYFCARPAPYWNFDVWGAGTTVTVSS
VL: DIQMTQSPSSLSASLGGKVTITCKASQDIKKNIAWYQHKPGKGPRLLIWYTSTLQPGIPSRFSGSGSGRDYSFSISNLEPEDIATYYCLQYDHLRTFGGGTKLEIK
notes: also called mouse anti-GFAP antibody GFAP-16
B11: GFAP-10 (antibody, V domains shown)
VH: EVKLVESGGGLVKPGGSLKLSCAASGFTFSYYAMSWVRQTPEKRLEWVASISSGGTTYHPDSVKGRFTISRDNARNILYLQMSSLRSEDTAMYYCARGGHWYFDVWGAGTTVTVSS
VL: QIVLTQSPAIMSASPGEKVTMTCSASSSVSYMHWYQQKSGTSPKRWIYDTSKLASGVPARFSGSGSGTSYSLTISSMEAEDAATYYCQQWSTNPLTFGAGTKLDLK
notes: also called mouse anti-GFAP antibody GFAP-10
B12: GFAP-17 (antibody, V domains shown)
VH: EVKLEESGGGLVQPGGSMKLSCVASGFTFSYYWMSWVRQSPEKGLEWIAEIRLKSNIYATHYAASVKGRFTISRDDSKSSVYLQMNNLRAEDTGIYFCTRFGTGAMDYWGQGTSVTVSS
VL: DIVMSQSPSSLAVSVGEKVTMSCKSSQSLLYRTNQKNYLAWYQQKPGQSPKLLIYWASSRESGVPDRFSGSGSGTDFTLTISSVKAEDLAVYYCQQYYSYPWTFGGGTKLEIK
notes: also called mouse anti-GFAP antibody GFAP-17
B13: GFAP-11 (antibody, V domains shown)
VH: QIQLVQSGPELKKPGETVKISCKASGYTFTNYGMNWVKQAPGEGLKWMGWINTNIGEPTYAEEFKGRFAFSLEASASTAYLQINNLKNEDTATYFCARWKNYGYFDYWGQGTTLTVSS
VL: QIVLTQSPAIMSASLGERVTMTCTASSSVSSSYLHWYQQKPGSSPKLWIYSTSNLASGVPARFSGSGSGTSYSLTISSLEAEDAATYYCHQYHRSPYTFGGGTKLEIK
notes: also called mouse anti-GFAP antibody GFAP-11
B14: GFAP-9 (antibody, V domains shown)
VH: DVQLQESGPGLVKPSQSLSLTCSVTGYSITSGFYWSWIRQFPGNKLEWMGYISYDGSNNYNPSLKNRISITRDTSKNQFFLKLNSVTTEDTATYYCARAYGYDGAWFAYWGQGTLVTVSA
VL: DIVMTQSQKFMSTSVGDRVSITCKASQNVRTAVAWYQQKPGQSPKALIYLASNRHTGVPDRFTGSGSGTDFTLTISNVQSEDLADYFCLQHWNNPYTFGGGTKLEIK
notes: also called mouse anti-GFAP antibody GFAP-9
B15: GFAP-7 (antibody, V domains shown)
VH: EVQLLQSGTVLARPGASVKMSCKASGYSFTSYWMHWIKQRPGQGLEWIGAIHPGNRDTSYNQKFKDKAKLTAVTSASTAYMELSSLTNEDSAVYFCTREDYWGQGTTLTVSS
VL: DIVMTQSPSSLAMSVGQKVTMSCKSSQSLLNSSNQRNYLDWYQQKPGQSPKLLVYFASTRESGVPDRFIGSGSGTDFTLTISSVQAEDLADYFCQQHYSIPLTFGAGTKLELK
notes: Same variable domains as GFAP-8; also called mouse anti-GFAP antibody GFAP-7
B16: GFAP-8 (antibody, V domains shown)
VH: EVQLLQSGTVLARPGASVKMSCKASGYSFTSYWMHWIKQRPGQGLEWIGAIHPGNRDTSYNQKFKDKAKLTAVTSASTAYMELSSLTNEDSAVYFCTREDYWGQGTTLTVSS
VL: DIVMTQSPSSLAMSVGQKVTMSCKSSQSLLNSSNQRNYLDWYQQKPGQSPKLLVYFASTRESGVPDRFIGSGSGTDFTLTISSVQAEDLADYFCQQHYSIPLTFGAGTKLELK
notes: Same variable domains as GFAP-7; also called mouse anti-GFAP antibody GFAP-8
B17: GFAP-4 (antibody, V domains shown)
VH: EVQLLQSGTVLARPGASVKMSCKASGYSFTSYWMHWIKQRPGQGLEWIGAIHPGNRDTSYNQKFKDKAKLTAVTSASTAYMELSSLTNEDSAVYFCTREDYWGQGTTLTVSS
VL: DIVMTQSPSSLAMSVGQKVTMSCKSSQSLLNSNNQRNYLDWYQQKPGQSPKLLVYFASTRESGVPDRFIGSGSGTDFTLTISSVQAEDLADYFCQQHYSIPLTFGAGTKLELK
notes: also called mouse anti-GFAP antibody GFAP-4
B18: GFAP-18 (antibody, V domains shown)
VH: EVILVESGGGLVKPGGSLKVSCAVSGFTFSNFAMSWVRQTPEKRLEWVASISSGGTTYYPDNVKGRFTISRDNARNIMYLQMSSLRSEDTAMYFCARGGLHYFGYWGQGTTLTVSS
VL: DIVMTQSHKFMSTSVGDRVSITCKASQDVNTAVAWYQQKPGQSLKLLIYSASYRYIGVPDRFTGSGSGTDFTFTINSVQAEDLAVYYCHQYYSTPLTFGTGTKLELK
notes: also called mouse anti-GFAP antibody GFAP-18
B19: GFAP-14 (antibody, V domains shown)
VH: DVQLVESGGGSVQPGGSRKLSCAASGFTFSSFGMHWVRQAPEKGLEWVAYISSDSNTVYYADTVKGRFTISRDNPKNTLFLQMTSLRSEDTAMYYCARYAMDYWGQGTSVTVSS
VL: QIVLTQSPALMSASPGEKVTMTCSASSSVSYMYWYQQKPRSSPKPWIYLTSNLASGVPARFSGSGSGTSYSLTISSMEAEDAATYYCQQWSSNPPTFGAGTKLELK
notes: also called mouse anti-GFAP antibody GFAP-14

For the test, the target named is T1, Polyhistidine-tagged recombinant human GFAP expressed from E. coli (human, UniProt P14136 1-432).
T1 construct: also called His-tagged GFAP; not shown: polyhistidine tag
T1 sequence (P14136 whole entry): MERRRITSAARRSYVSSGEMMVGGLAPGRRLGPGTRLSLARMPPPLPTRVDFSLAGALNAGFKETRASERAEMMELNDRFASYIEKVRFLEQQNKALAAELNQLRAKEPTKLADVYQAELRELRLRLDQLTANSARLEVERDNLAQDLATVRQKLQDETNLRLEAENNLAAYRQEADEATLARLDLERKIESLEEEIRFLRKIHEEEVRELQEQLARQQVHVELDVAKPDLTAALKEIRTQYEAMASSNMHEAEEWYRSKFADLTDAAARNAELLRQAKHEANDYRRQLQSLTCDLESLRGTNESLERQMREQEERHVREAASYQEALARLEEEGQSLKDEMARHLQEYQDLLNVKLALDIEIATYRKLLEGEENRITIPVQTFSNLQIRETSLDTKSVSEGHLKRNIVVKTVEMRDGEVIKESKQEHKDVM
The test is described as follows: BLI (Octet QKe); His-tagged GFAP on anti-Penta-HIS sensor, antibody in solution. The procedure:
The rates of association (kₒₙ) and dissociation (koff) of the anti-GFAP antibodies were determined by bio-layer interferometry using an Octet QK^e instrument according to the manufacturer's instructions (ForteBio). See Tobias et al., Biomolecular Binding Kinetic Assays in the Octet Platform, Application Note 14, ForteBio, Div. of Pall Life Sciences, 2013. Polyhistidine-tagged recombinant human GFAP expressed from E. coli was used as the antigen. The antigen was bound at a concentration of 8.3 μg/ml to an anti-Penta-HIS(HIS1K) capture biosensor containing an anti-histidine antibody (ForteBio) for use with the Octet QK^e instrument.
Background: In BLI a coated tip is dipped into the sample, and binding shifts an interference pattern.
Broadly, the Kd is the free concentration of one partner at which half of the binding sites on the other are occupied at equilibrium, for simple one-to-one binding. What is called koff is a measure of how fast the partners let go of each other. By kon is commonly meant the rate constant with which the complex forms. On to B1, for which the equilibrium dissociation constant (Kd) amounted to 13.3 nM, the koff turned out to be 0.00024 s⁻¹ and the on-rate constant (kon) amounted to 18000 M⁻¹ s⁻¹.

For the molecule B2, the Kd was determined as 12 nM, the koff worked out at 0.000698 s⁻¹ and the on-rate (kon) was 58000 M⁻¹ s⁻¹.

On to B3, for which the Kd was found to be 0.423 nM, the koff came to 6.4e-05 s⁻¹ and the kon is 151000 M⁻¹ s⁻¹.

For the molecule B4, the Kd was determined as 1.07 nM, the off-rate constant (koff) turned out to be 0.000124 s⁻¹ and the on-rate (kon) is 116000 M⁻¹ s⁻¹.

As to B5, the Kd is 0.6 nM, the koff was 0.000194 s⁻¹ and the kon stood at 324000 M⁻¹ s⁻¹.

Consider B6, for which the Kd was 0.0107 nM, the koff was determined as 1.7e-06 s⁻¹ and the on-rate constant (kon) is 162000 M⁻¹ s⁻¹.

For B7, the Kd was found to be 0.202 nM, the koff came to 0.000231 s⁻¹ and the kon stood at 1.15e+06 M⁻¹ s⁻¹.

On to B8, for which the Kd is 0.0557 nM, the koff was found to be 3.3e-05 s⁻¹ and the kon is 593000 M⁻¹ s⁻¹.

Consider B9, for which the equilibrium dissociation constant (Kd) came to 5.36 nM, the koff turned out to be 0.000107 s⁻¹ and the kon was 20000 M⁻¹ s⁻¹.

As for B10, the Kd was 0.273 nM, the koff is 4.7e-05 s⁻¹ and the kon stood at 173000 M⁻¹ s⁻¹.

For the molecule B11, the Kd is less than 0.001 nM, the koff was 1e-07 s⁻¹ and the kon worked out at 53300 M⁻¹ s⁻¹.

As to B12, the Kd came out at 0.208 nM, the koff stood at 1.8e-05 s⁻¹ and the kon came to 86600 M⁻¹ s⁻¹.

Consider B13, for which the Kd amounted to 0.396 nM, the koff is 0.000125 s⁻¹ and the kon turned out to be 315000 M⁻¹ s⁻¹.

B14: the Kd was found to be 18 nM, the koff turned out to be 0.000701 s⁻¹ and the on-rate (kon) came to 39000 M⁻¹ s⁻¹.

Regarding B15, the Kd came to 0.856 nM, the dissociation rate constant (koff) is 5.8e-05 s⁻¹ and the kon amounted to 67800 M⁻¹ s⁻¹.

Consider B16, for which the Kd was 1.11 nM, the koff turned out to be 0.000133 s⁻¹ and the kon worked out at 120000 M⁻¹ s⁻¹.

For the molecule B17, the Kd amounted to 2.93 nM, the koff is 0.000158 s⁻¹ and the kon was 53700 M⁻¹ s⁻¹.

For B18, the equilibrium dissociation constant (Kd) is 0.0737 nM, the off-rate constant (koff) stood at 2.5e-05 s⁻¹ and the kon worked out at 344000 M⁻¹ s⁻¹.

For B19, the Kd was found to be 0.28 nM, the koff came to 8.4e-05 s⁻¹ and the kon worked out at 299000 M⁻¹ s⁻¹.

The values above are taken from US20210347914A1 (BANYAN BIOMARKERS, published 2021).
